Ends that are not written are not given here.
T1: Human LSD2 (residues 51-822) (human, UniProt Q8NB78 51-822)
T1 construct: range 51-822; Expressed in Sf9 cells with a His6 tag removed by 3C protease; used for ITC; also called KDM1b; AOF1
T1 sequence (looked up): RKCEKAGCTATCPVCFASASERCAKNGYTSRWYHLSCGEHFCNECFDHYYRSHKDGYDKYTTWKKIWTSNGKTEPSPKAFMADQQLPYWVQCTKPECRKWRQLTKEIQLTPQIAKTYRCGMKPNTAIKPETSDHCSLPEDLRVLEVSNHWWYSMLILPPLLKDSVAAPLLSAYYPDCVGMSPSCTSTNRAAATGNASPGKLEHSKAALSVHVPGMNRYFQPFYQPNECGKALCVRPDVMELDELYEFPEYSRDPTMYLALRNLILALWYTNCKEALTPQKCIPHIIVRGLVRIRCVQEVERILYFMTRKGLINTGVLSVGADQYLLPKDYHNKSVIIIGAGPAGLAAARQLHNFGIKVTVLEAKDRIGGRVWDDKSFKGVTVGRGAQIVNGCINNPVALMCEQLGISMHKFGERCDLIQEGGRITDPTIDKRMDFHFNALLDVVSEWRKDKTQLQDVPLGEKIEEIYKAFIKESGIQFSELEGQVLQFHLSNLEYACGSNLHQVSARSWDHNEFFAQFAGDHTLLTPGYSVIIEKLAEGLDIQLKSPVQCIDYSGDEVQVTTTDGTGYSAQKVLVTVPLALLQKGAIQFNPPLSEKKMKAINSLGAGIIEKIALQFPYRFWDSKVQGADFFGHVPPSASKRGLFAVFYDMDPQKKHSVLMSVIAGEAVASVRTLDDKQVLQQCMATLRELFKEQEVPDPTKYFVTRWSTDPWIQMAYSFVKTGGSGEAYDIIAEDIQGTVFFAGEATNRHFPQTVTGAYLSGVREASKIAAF

T2: Recombinant 6x his tagged full-length LSD2 (human, UniProt Q8NB78 1-822)
T2 construct: range 1-822; Expressed in and purified from Sf9 insect cells; also called His-LSD2; full-length His-LSD2
T2 sequence: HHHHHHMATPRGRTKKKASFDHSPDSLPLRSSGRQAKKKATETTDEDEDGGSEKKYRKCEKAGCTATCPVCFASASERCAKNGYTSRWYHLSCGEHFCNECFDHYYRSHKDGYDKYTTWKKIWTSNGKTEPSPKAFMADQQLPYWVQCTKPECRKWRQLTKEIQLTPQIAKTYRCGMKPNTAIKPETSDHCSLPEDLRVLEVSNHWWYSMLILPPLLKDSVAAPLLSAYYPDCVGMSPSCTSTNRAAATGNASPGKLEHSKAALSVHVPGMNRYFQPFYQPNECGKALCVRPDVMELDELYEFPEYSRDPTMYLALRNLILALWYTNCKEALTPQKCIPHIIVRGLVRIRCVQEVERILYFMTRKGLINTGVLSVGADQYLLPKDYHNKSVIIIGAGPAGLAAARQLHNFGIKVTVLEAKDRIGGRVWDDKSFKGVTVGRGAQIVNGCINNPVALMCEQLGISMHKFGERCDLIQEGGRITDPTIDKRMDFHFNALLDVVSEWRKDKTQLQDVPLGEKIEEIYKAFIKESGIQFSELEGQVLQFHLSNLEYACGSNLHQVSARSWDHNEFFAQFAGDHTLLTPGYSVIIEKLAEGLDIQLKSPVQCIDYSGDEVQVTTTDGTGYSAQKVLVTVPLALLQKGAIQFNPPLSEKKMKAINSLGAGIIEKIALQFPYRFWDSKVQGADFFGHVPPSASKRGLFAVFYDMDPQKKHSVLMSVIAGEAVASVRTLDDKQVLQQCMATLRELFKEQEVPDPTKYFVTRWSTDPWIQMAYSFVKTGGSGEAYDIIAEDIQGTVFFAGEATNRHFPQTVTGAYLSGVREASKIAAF

T3: Endogenous LSD2 (human cells) (human, UniProt Q8NB78 1-822, limits assumed)
T3 construct: also called KDM1b; AOF1
T3 sequence (looked up): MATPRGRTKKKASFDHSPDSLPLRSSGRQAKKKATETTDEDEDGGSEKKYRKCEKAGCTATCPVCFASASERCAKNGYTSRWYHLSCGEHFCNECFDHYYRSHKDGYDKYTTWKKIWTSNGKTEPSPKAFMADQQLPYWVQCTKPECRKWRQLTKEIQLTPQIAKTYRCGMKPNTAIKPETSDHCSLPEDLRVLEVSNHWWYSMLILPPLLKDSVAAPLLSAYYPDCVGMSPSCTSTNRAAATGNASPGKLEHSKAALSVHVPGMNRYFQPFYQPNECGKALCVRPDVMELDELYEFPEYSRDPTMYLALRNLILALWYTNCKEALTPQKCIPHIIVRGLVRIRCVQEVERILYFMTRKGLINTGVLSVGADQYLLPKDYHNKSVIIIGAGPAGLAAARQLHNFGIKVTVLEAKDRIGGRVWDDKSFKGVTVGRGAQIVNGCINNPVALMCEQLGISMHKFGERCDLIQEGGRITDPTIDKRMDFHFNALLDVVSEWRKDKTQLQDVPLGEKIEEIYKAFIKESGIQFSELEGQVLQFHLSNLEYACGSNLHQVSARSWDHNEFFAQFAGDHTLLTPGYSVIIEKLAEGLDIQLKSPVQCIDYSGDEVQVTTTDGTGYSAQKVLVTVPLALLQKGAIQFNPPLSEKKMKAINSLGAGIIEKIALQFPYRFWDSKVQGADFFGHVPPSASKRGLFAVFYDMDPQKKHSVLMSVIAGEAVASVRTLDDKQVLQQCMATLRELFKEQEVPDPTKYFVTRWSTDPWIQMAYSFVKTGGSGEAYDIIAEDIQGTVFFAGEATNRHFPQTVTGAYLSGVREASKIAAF

B1: NPAC.214-225.M8 (D214A/H216A/F217A) (peptide)
peptide: APAAHHFLLSQT
notes: Synthetic dodecapeptide; also called D214A/H216A/F217A triple mutant peptide
B2: GST-NP.d5 (NPAC residues 262-553, dehydrogenase domain) (other)
chain: SITPTDKKIGFLGLGLMGSGIVSNLLKMGHTVTVWNRTAEKCDLFIQEGARLGRTPAEVVSTCDITFACVSDPKAAKDLVLGPSGVLQGIRPGKCYVDMSTVDADTVTELAQVIVSRGGRFLEAPVSGNQQLSNDGMLVILAAGDRGLYEDCSSCFQAMGKTSFFLGEVGNAAKMMLIVNMVQGSFMATIAEGLTLAHVTGQSQQTLLDILNQGQLASIFLDQKCQNILQGNFKPDFYLKYIQKDLRLAIALGDAVNHPTPMAAAANEVYKRAKALDQSDNDMSAVYRAYIH
notes: not shown: glutathione S-transferase (GST) tag from vector pGEX-4T-1
B3: GST-NP.d1 (NPAC residues 1-150, PWWP domain) (other)
chain: MAAVSLRLGDLVWGKLGRYPPWPGKIVNPPKDLKKPRGKKCFFVKFFGTEDHAWIKVEQLKPYHAHKEEMIKINKGKRFQQAVDAVEEFLRRAKGKDQTSSHNSSDDKNRRNSSEERSRPNSGDEKRKLSLSEGKVKKNMGEGKKRVSSG
notes: as for B2
B4: GST-NP.d9 (NP.d3, NPAC residues 152-252, with deletion of amino acids 214-222) (other, not shown: a dimerising Fc or GST; small tags and cut ends)
chain: SERGSKSPLKRAQEQSPRKRGRPPKDEKDLTIPESSTVKGMMAGPMAAFKWQPTASEPVKDASQTEKPAVCYQAITKKLKICEEETGSTSIQ
notes: The flanking ranges are derived from that
B5: GST-NP.d7 (NPAC residues 152-186, containing the AT hook motif) (other)
chain: SERGSKSPLKRAQEQSPRKRGRPPKDEKDLTIPES
modifications: also: GST tag fusion, tag and linker sequence not given here
notes: as for B2
B6: GST-NP.d6 (NPAC with deletion of the linker region, residues 152-252) (other, not shown: a dimerising Fc or GST; small tags and cut ends)
chain: MAAVSLRLGDLVWGKLGRYPPWPGKIVNPPKDLKKPRGKKCFFVKFFGTEDHAWIKVEQLKPYHAHKEEMIKINKGKRFQQAVDAVEEFLRRAKGKDQTSSHNSSDDKNRRNSSEERSRPNSGDEKRKLSLSEGKVKKNMGEGKKRVSSGSAADSTAVNGSITPTDKKIGFLGLGLMGSGIVSNLLKMGHTVTVWNRTAEKCDLFIQEGARLGRTPAEVVSTCDITFACVSDPKAAKDLVLGPSGVLQGIRPGKCYVDMSTVDADTVTELAQVIVSRGGRFLEAPVSGNQQLSNDGMLVILAAGDRGLYEDCSSCFQAMGKTSFFLGEVGNAAKMMLIVNMVQGSFMATIAEGLTLAHVTGQSQQTLLDILNQGQLASIFLDQKCQNILQGNFKPDFYLKYIQKDLRLAIALGDAVNHPTPMAAAANEVYKRAKALDQSDNDMSAVYRAYIH
notes: as for B4
B7: NPAC.214-225.M6 (F217A) (peptide)
peptide: DPHAHHFLLSQT
notes: Synthetic dodecapeptide; also called NP.M6
B8: FLAG-HA tagged NPAC (N-terminal FLAG-HA, stably expressed in HeLa, tandem affinity purified) (other)
chain: MAAVSLRLGDLVWGKLGRYPPWPGKIVNPPKDLKKPRGKKCFFVKFFGTEDHAWIKVEQLKPYHAHKEEMIKINKGKRFQQAVDAVEEFLRRAKGKDQTSSHNSSDDKNRRNSSEERSRPNSGDEKRKLSLSEGKVKKNMGEGKKRVSSGSSERGSKSPLKRAQEQSPRKRGRPPKDEKDLTIPESSTVKGMMAGPMAAFKWQPTASEPVKDADPHFHHFLLSQTEKPAVCYQAITKKLKICEEETGSTSIQAADSTAVNGSITPTDKKIGFLGLGLMGSGIVSNLLKMGHTVTVWNRTAEKCDLFIQEGARLGRTPAEVVSTCDITFACVSDPKAAKDLVLGPSGVLQGIRPGKCYVDMSTVDADTVTELAQVIVSRGGRFLEAPVSGNQQLSNDGMLVILAAGDRGLYEDCSSCFQAMGKTSFFLGEVGNAAKMMLIVNMVQGSFMATIAEGLTLAHVTGQSQQTLLDILNQGQLASIFLDQKCQNILQGNFKPDFYLKYIQKDLRLAIALGDAVNHPTPMAAAANEVYKRAKALDQSDNDMSAVYRAYIH
notes: Bait of the purified NPAC complex; also called FLAG:HA-NPAC; NPAC complex; not shown: N-terminal FLAG-HA tag from pOZ-N vector
B9: Endogenous NPAC (human cells) (other)
chain: MAAVSLRLGDLVWGKLGRYPPWPGKIVNPPKDLKKPRGKKCFFVKFFGTEDHAWIKVEQLKPYHAHKEEMIKINKGKRFQQAVDAVEEFLRRAKGKDQTSSHNSSDDKNRRNSSEERSRPNSGDEKRKLSLSEGKVKKNMGEGKKRVSSGSSERGSKSPLKRAQEQSPRKRGRPPKDEKDLTIPESSTVKGMMAGPMAAFKWQPTASEPVKDADPHFHHFLLSQTEKPAVCYQAITKKLKICEEETGSTSIQAADSTAVNGSITPTDKKIGFLGLGLMGSGIVSNLLKMGHTVTVWNRTAEKCDLFIQEGARLGRTPAEVVSTCDITFACVSDPKAAKDLVLGPSGVLQGIRPGKCYVDMSTVDADTVTELAQVIVSRGGRFLEAPVSGNQQLSNDGMLVILAAGDRGLYEDCSSCFQAMGKTSFFLGEVGNAAKMMLIVNMVQGSFMATIAEGLTLAHVTGQSQQTLLDILNQGQLASIFLDQKCQNILQGNFKPDFYLKYIQKDLRLAIALGDAVNHPTPMAAAANEVYKRAKALDQSDNDMSAVYRAYIH
notes: Endogenous protein of HeLa cells, detected by immunoblot in purified complexes; also called GLYR1; NP60

Legend:
[1] = target: T1, Human LSD2 (residues 51-822); assay: ITC, 15 °C; 3 mM peptide injected into 0.2 mM LSD2 (residues 51-822)
Protocol: Isothermal Titration Calorimetry (ITC) binding study. […] All proteins and peptides were prepared in 10 mM HEPES, pH 8.0, and 0.1 M NaCl. The data were fitted by software Origin 7.0.

[2] = target: T2, Recombinant 6x his tagged full-length …; assay: GST pulldown of purified His-LSD2, SDS-PAGE, Coomassie
Protocol: DH, dehydrogenase domain; black box, AT-hook motif. FIG. 2A discloses “PWWP” as SEQ ID NO: 63. […] Molecular masses corresponding to mono- and di-methylated H3K4 peptides (residues 1-21) are denoted as me1 and me2, respectively.
(§1) After washed 4 times with same buffer at 4° C., glutathione agarose beads were boiled in 1× SDS sample loading buffer. Elute was resolved on a 15% SDS-PAGE gel and stained by coomassie blue.

[3] = target: T2, Recombinant 6x his tagged full-length …; assay: GST pulldown of His-LSD2, SDS-PAGE, Coomassie
Protocol: FIG. 5B discloses SEQ ID NO: 51. […] FIG. 5D discloses SEQ ID NOS 63 and 76, respectively, in order of appearance. […] See also FIG. 6G.
as §1

[4] = target: T3, Endogenous LSD2 (human cells); assay: tandem affinity purification from HeLa, immunoblot with anti-LSD2
[5] = target: Endogenous LSD1 (HeLa cells) (human, UniProt O60341 1-852); assay: tandem affinity purification, immunoblot with anti-LSD1
[6] = target: FLAG-HA tagged LSD1 bait protein (stably expressed in HeLa, tandem affinity purified) (human, UniProt O60341 1-852); assay: tandem affinity purification, immunoblot with anti-NPAC

Binder	Δ H [1] [kcal/mol]	Δ S [1] [cal/mol/deg]	binding result [2]	other results
B1	-8.29	-1.3	–	–
B2	–	–	no binding	–
B3	–	–	no binding	–
B4	–	–	–	binding result [3]: no binding
B5	–	–	–	binding result [3]: no binding
B6	–	–	no binding	–
DPHFHHFLLSQT (also called wild-type NPAC peptide) [NPAC.214-225.WT (wild-type NPAC dodecapeptide, residues 214-225)]	-8.48	-1.82	–	Binding ratio [1]: 1.06; Kd [1]: 920 nM
B7	-8.18	-0.783	–	Binding ratio [1]: 1.1; Kd [1]: 930 nM
B8	–	–	–	binding result [4]: binds; binding result [5]: no binding
B9	–	–	–	binding result [6]: no binding

From patent publication US20150329644A1 (BRIGHAM AND WOMEN S HOSPITAL, published 2015)
